Starred links: 1 amine or outer side, 2 acyl side, 3 side chain; linkers in the order of their positions; H or OH if unused. Non-standard residues stand in square brackets, D forms with d. Groups on a side chain read outwards from the residue. No end group written: not given here. *: point of attachment. C18 diacid = O=C(O)CCCCCCCCCCCCCCCCC(=O)*; γGlu = O=C(O)[C@H](CCC(=O)[*:2])N[*:1]; AEEA = NCCOCCOCC(=O)O; Aib = CC(C)(N)C(=O)O

The target in the assay is human corticotropin-releasing factor 2α (CRF2 α receptor) (human), Q13324. Briefly: cell-based or functional assay.
human corticotropin-releasing factor 2α (CRF2 α receptor) (human), Q13324, sequence (Q13324 20-411): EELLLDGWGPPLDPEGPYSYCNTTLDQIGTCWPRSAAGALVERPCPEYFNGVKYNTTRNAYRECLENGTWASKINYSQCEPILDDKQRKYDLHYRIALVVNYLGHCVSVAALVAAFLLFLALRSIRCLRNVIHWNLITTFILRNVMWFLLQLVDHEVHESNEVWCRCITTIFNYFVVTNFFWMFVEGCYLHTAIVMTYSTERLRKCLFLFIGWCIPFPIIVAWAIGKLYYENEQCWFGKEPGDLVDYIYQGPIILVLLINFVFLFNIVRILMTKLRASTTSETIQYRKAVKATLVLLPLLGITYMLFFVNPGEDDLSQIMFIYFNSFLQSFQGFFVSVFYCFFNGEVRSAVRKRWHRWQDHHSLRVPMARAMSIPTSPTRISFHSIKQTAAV

B1: SEQ ID NO: 130 (peptide)
peptide: IVLSLD[dV]PIKLK([AEEA-AEEA-γGlu-C18 diacid])QILLKQERQK[Aib]QREQAEKNKQILAQV-NH2
modifications: N-terminus assumed
SMILES: CC[C@H](C)[C@H](N)C(=O)N[C@H](C(=O)N[C@@H](CC(C)C)C(=O)N[C@@H](CO)C(=O)N[C@@H](CC(C)C)C(=O)N[C@@H](CC(=O)O)C(=O)N[C@@H](C(=O)N1CCC[C@H]1C(=O)N[C@H](C(=O)N[C@@H](CCCCN)C(=O)N[C@@H](CC(C)C)C(=O)N[C@@H](CCCCNC(=O)COCCOCCNC(=O)COCCOCCNC(=O)CC[C@H](NC(=O)CCCCCCCCCCCCCCCCC(=O)O)C(=O)O)C(=O)N[C@@H](CCC(N)=O)C(=O)N[C@H](C(=O)N[C@@H](CC(C)C)C(=O)N[C@@H](CC(C)C)C(=O)N[C@@H](CCCCN)C(=O)N[C@@H](CCC(N)=O)C(=O)N[C@@H](CCC(=O)O)C(=O)N[C@@H](CCCNC(=N)N)C(=O)N[C@@H](CCC(N)=O)C(=O)N[C@@H](CCCCN)C(=O)NC(C)(C)C(=O)N[C@@H](CCC(N)=O)C(=O)N[C@@H](CCCNC(=N)N)C(=O)N[C@@H](CCC(=O)O)C(=O)N[C@@H](CCC(N)=O)C(=O)N[C@@H](C)C(=O)N[C@@H](CCC(=O)O)C(=O)N[C@@H](CCCCN)C(=O)N[C@@H](CC(N)=O)C(=O)N[C@@H](CCCCN)C(=O)N[C@@H](CCC(N)=O)C(=O)N[C@H](C(=O)N[C@@H](CC(C)C)C(=O)N[C@@H](C)C(=O)N[C@@H](CCC(N)=O)C(=O)N[C@H](C(N)=O)C(C)C)[C@@H](C)CC)[C@@H](C)CC)[C@@H](C)CC)C(C)C)C(C)C
The molecule B1 gave an EC50 [nM], 0% HSA of 0.05 nM and an EC50 [nM], 0.1% HSA of 2.11 nM.

B2: SEQ ID NO: 132 (peptide)
peptide: IVLSLD[dV]PIKLK([AEEA-AEEA-γGlu-C18 diacid])QILLEQERQK[Aib]QREQAEKNKQILERV-NH2
modifications: N-terminus assumed
SMILES: CC[C@H](C)[C@H](N)C(=O)N[C@H](C(=O)N[C@@H](CC(C)C)C(=O)N[C@@H](CO)C(=O)N[C@@H](CC(C)C)C(=O)N[C@@H](CC(=O)O)C(=O)N[C@@H](C(=O)N1CCC[C@H]1C(=O)N[C@H](C(=O)N[C@@H](CCCCN)C(=O)N[C@@H](CC(C)C)C(=O)N[C@@H](CCCCNC(=O)COCCOCCNC(=O)COCCOCCNC(=O)CC[C@H](NC(=O)CCCCCCCCCCCCCCCCC(=O)O)C(=O)O)C(=O)N[C@@H](CCC(N)=O)C(=O)N[C@H](C(=O)N[C@@H](CC(C)C)C(=O)N[C@@H](CC(C)C)C(=O)N[C@@H](CCC(=O)O)C(=O)N[C@@H](CCC(N)=O)C(=O)N[C@@H](CCC(=O)O)C(=O)N[C@@H](CCCNC(=N)N)C(=O)N[C@@H](CCC(N)=O)C(=O)N[C@@H](CCCCN)C(=O)NC(C)(C)C(=O)N[C@@H](CCC(N)=O)C(=O)N[C@@H](CCCNC(=N)N)C(=O)N[C@@H](CCC(=O)O)C(=O)N[C@@H](CCC(N)=O)C(=O)N[C@@H](C)C(=O)N[C@@H](CCC(=O)O)C(=O)N[C@@H](CCCCN)C(=O)N[C@@H](CC(N)=O)C(=O)N[C@@H](CCCCN)C(=O)N[C@@H](CCC(N)=O)C(=O)N[C@H](C(=O)N[C@@H](CC(C)C)C(=O)N[C@@H](CCC(=O)O)C(=O)N[C@@H](CCCNC(=N)N)C(=O)N[C@H](C(N)=O)C(C)C)[C@@H](C)CC)[C@@H](C)CC)[C@@H](C)CC)C(C)C)C(C)C
On to B2, for which the EC50 [nM], 0% HSA stood at 0.38 nM and the EC50 [nM], 0.1% HSA is 8.76 nM.

B3: SEQ ID NO: 133 (peptide)
peptide: IVLSLD[dV]PIKLK([AEEA-AEEA-γGlu-C18 diacid])QILLKQERQK[Aib]QREQAEKNKQILERV-NH2
modifications: N-terminus assumed
SMILES: CC[C@H](C)[C@H](N)C(=O)N[C@H](C(=O)N[C@@H](CC(C)C)C(=O)N[C@@H](CO)C(=O)N[C@@H](CC(C)C)C(=O)N[C@@H](CC(=O)O)C(=O)N[C@@H](C(=O)N1CCC[C@H]1C(=O)N[C@H](C(=O)N[C@@H](CCCCN)C(=O)N[C@@H](CC(C)C)C(=O)N[C@@H](CCCCNC(=O)COCCOCCNC(=O)COCCOCCNC(=O)CC[C@H](NC(=O)CCCCCCCCCCCCCCCCC(=O)O)C(=O)O)C(=O)N[C@@H](CCC(N)=O)C(=O)N[C@H](C(=O)N[C@@H](CC(C)C)C(=O)N[C@@H](CC(C)C)C(=O)N[C@@H](CCCCN)C(=O)N[C@@H](CCC(N)=O)C(=O)N[C@@H](CCC(=O)O)C(=O)N[C@@H](CCCNC(=N)N)C(=O)N[C@@H](CCC(N)=O)C(=O)N[C@@H](CCCCN)C(=O)NC(C)(C)C(=O)N[C@@H](CCC(N)=O)C(=O)N[C@@H](CCCNC(=N)N)C(=O)N[C@@H](CCC(=O)O)C(=O)N[C@@H](CCC(N)=O)C(=O)N[C@@H](C)C(=O)N[C@@H](CCC(=O)O)C(=O)N[C@@H](CCCCN)C(=O)N[C@@H](CC(N)=O)C(=O)N[C@@H](CCCCN)C(=O)N[C@@H](CCC(N)=O)C(=O)N[C@H](C(=O)N[C@@H](CC(C)C)C(=O)N[C@@H](CCC(=O)O)C(=O)N[C@@H](CCCNC(=N)N)C(=O)N[C@H](C(N)=O)C(C)C)[C@@H](C)CC)[C@@H](C)CC)[C@@H](C)CC)C(C)C)C(C)C
The molecule B3 yielded an EC50 [nM], 0% HSA of 0.09 nM and an EC50 [nM], 0.1% HSA of 3.19 nM.

B4: SEQ ID NO: 129 (peptide)
peptide: IVLSLD[dV]PIKLK([AEEA-AEEA-γGlu-C18 diacid])QILLEQERQK[Aib]QREQAEKNKQILAQV-NH2
modifications: N-terminus assumed
SMILES: CC[C@H](C)[C@H](N)C(=O)N[C@H](C(=O)N[C@@H](CC(C)C)C(=O)N[C@@H](CO)C(=O)N[C@@H](CC(C)C)C(=O)N[C@@H](CC(=O)O)C(=O)N[C@@H](C(=O)N1CCC[C@H]1C(=O)N[C@H](C(=O)N[C@@H](CCCCN)C(=O)N[C@@H](CC(C)C)C(=O)N[C@@H](CCCCNC(=O)COCCOCCNC(=O)COCCOCCNC(=O)CC[C@H](NC(=O)CCCCCCCCCCCCCCCCC(=O)O)C(=O)O)C(=O)N[C@@H](CCC(N)=O)C(=O)N[C@H](C(=O)N[C@@H](CC(C)C)C(=O)N[C@@H](CC(C)C)C(=O)N[C@@H](CCC(=O)O)C(=O)N[C@@H](CCC(N)=O)C(=O)N[C@@H](CCC(=O)O)C(=O)N[C@@H](CCCNC(=N)N)C(=O)N[C@@H](CCC(N)=O)C(=O)N[C@@H](CCCCN)C(=O)NC(C)(C)C(=O)N[C@@H](CCC(N)=O)C(=O)N[C@@H](CCCNC(=N)N)C(=O)N[C@@H](CCC(=O)O)C(=O)N[C@@H](CCC(N)=O)C(=O)N[C@@H](C)C(=O)N[C@@H](CCC(=O)O)C(=O)N[C@@H](CCCCN)C(=O)N[C@@H](CC(N)=O)C(=O)N[C@@H](CCCCN)C(=O)N[C@@H](CCC(N)=O)C(=O)N[C@H](C(=O)N[C@@H](CC(C)C)C(=O)N[C@@H](C)C(=O)N[C@@H](CCC(N)=O)C(=O)N[C@H](C(N)=O)C(C)C)[C@@H](C)CC)[C@@H](C)CC)[C@@H](C)CC)C(C)C)C(C)C
B4: the EC50 [nM], 0% HSA stood at 0.15 nM and the EC50 [nM], 0.1% HSA was determined as 3.02 nM.

B5: SEQ ID NO: 131 (peptide)
peptide: IVLSLD[dV]PIKLK([AEEA-AEEA-γGlu-C18 diacid])QILLEQERQK[Aib]QRQQAEKNKQILAQV-NH2
modifications: N-terminus assumed
SMILES: CC[C@H](C)[C@H](N)C(=O)N[C@H](C(=O)N[C@@H](CC(C)C)C(=O)N[C@@H](CO)C(=O)N[C@@H](CC(C)C)C(=O)N[C@@H](CC(=O)O)C(=O)N[C@@H](C(=O)N1CCC[C@H]1C(=O)N[C@H](C(=O)N[C@@H](CCCCN)C(=O)N[C@@H](CC(C)C)C(=O)N[C@@H](CCCCNC(=O)COCCOCCNC(=O)COCCOCCNC(=O)CC[C@H](NC(=O)CCCCCCCCCCCCCCCCC(=O)O)C(=O)O)C(=O)N[C@@H](CCC(N)=O)C(=O)N[C@H](C(=O)N[C@@H](CC(C)C)C(=O)N[C@@H](CC(C)C)C(=O)N[C@@H](CCC(=O)O)C(=O)N[C@@H](CCC(N)=O)C(=O)N[C@@H](CCC(=O)O)C(=O)N[C@@H](CCCNC(=N)N)C(=O)N[C@@H](CCC(N)=O)C(=O)N[C@@H](CCCCN)C(=O)NC(C)(C)C(=O)N[C@@H](CCC(N)=O)C(=O)N[C@@H](CCCNC(=N)N)C(=O)N[C@@H](CCC(N)=O)C(=O)N[C@@H](CCC(N)=O)C(=O)N[C@@H](C)C(=O)N[C@@H](CCC(=O)O)C(=O)N[C@@H](CCCCN)C(=O)N[C@@H](CC(N)=O)C(=O)N[C@@H](CCCCN)C(=O)N[C@@H](CCC(N)=O)C(=O)N[C@H](C(=O)N[C@@H](CC(C)C)C(=O)N[C@@H](C)C(=O)N[C@@H](CCC(N)=O)C(=O)N[C@H](C(N)=O)C(C)C)[C@@H](C)CC)[C@@H](C)CC)[C@@H](C)CC)C(C)C)C(C)C
As to B5, the EC50 [nM], 0% HSA amounted to 0.11 nM and the EC50 [nM], 0.1% HSA was found to be 2.44 nM.

B6: SEQ ID NO: 134 (peptide)
peptide: IVLSLD[dV]PIKLK([AEEA-AEEA-γGlu-C18 diacid])QILLKQERQK[Aib]QREKAEKNKQILAQV-NH2
modifications: N-terminus assumed
SMILES: CC[C@H](C)[C@H](N)C(=O)N[C@H](C(=O)N[C@@H](CC(C)C)C(=O)N[C@@H](CO)C(=O)N[C@@H](CC(C)C)C(=O)N[C@@H](CC(=O)O)C(=O)N[C@@H](C(=O)N1CCC[C@H]1C(=O)N[C@H](C(=O)N[C@@H](CCCCN)C(=O)N[C@@H](CC(C)C)C(=O)N[C@@H](CCCCNC(=O)COCCOCCNC(=O)COCCOCCNC(=O)CC[C@H](NC(=O)CCCCCCCCCCCCCCCCC(=O)O)C(=O)O)C(=O)N[C@@H](CCC(N)=O)C(=O)N[C@H](C(=O)N[C@@H](CC(C)C)C(=O)N[C@@H](CC(C)C)C(=O)N[C@@H](CCCCN)C(=O)N[C@@H](CCC(N)=O)C(=O)N[C@@H](CCC(=O)O)C(=O)N[C@@H](CCCNC(=N)N)C(=O)N[C@@H](CCC(N)=O)C(=O)N[C@@H](CCCCN)C(=O)NC(C)(C)C(=O)N[C@@H](CCC(N)=O)C(=O)N[C@@H](CCCNC(=N)N)C(=O)N[C@@H](CCC(=O)O)C(=O)N[C@@H](CCCCN)C(=O)N[C@@H](C)C(=O)N[C@@H](CCC(=O)O)C(=O)N[C@@H](CCCCN)C(=O)N[C@@H](CC(N)=O)C(=O)N[C@@H](CCCCN)C(=O)N[C@@H](CCC(N)=O)C(=O)N[C@H](C(=O)N[C@@H](CC(C)C)C(=O)N[C@@H](C)C(=O)N[C@@H](CCC(N)=O)C(=O)N[C@H](C(N)=O)C(C)C)[C@@H](C)CC)[C@@H](C)CC)[C@@H](C)CC)C(C)C)C(C)C
The molecule B6 registered an EC50 [nM], 0% HSA of 0.07 nM and an EC50 [nM], 0.1% HSA of 3.44 nM.

(Values after US12679878B2, “CRF2 receptor agonists and their use in therapy” (SANOFI, priority 2020, dated 2026).)
